Values joined by “and” are separate entries in the source; they are usually repeats but may differ in a detail not shown here. Equal values may be shown once.
Legend:
[1] = biological target: FlaK I365E with a C-terminal His6-tag (Vibrio alginolyticus); assay: cross-linking
[2] = biological target: FlaK I365E with a C-terminal His6-tag (Vibrio alginolyticus); assay: SEC
[3] = biological target: FlaK K171A with a C-terminal His6-tag (Vibrio alginolyticus); assay: cross-linking + SEC
[4] = biological target: FlaK K171A with a C-terminal His6-tag (Vibrio alginolyticus); assay: cross-linking
[5] = biological target: FlaK K171A with a C-terminal His6-tag (Vibrio alginolyticus); assay: SEC
[6] = biological target: FlaK, wild type, with a C-terminal His6-tag (Vibrio alginolyticus); assay: cross-linking + SEC
[7] = biological target: FlaK, wild type, with a C-terminal His6-tag (Vibrio alginolyticus); assay: cross-linking
[8] = biological target: FlaK, wild type, with a C-terminal His6-tag (Vibrio alginolyticus); assay: SEC
[9] = biological target: FlaK Q140E with a C-terminal His6-tag (Vibrio alginolyticus); assay: cross-linking
[10] = biological target: FlaK L371E with a C-terminal His6-tag (Vibrio alginolyticus); assay: cross-linking
[11] = biological target: FlaK E237Q with a C-terminal His6-tag (Vibrio alginolyticus); assay: cross-linking
[12] = biological target: FlaK D236A with a C-terminal His6-tag (Vibrio alginolyticus); assay: cross-linking

Work on “FlaK I365E with a C-terminal His6-tag (natural protein)” yielded a stoichiometry N [1] of 2 and a stoichiometry N [2] of 2.
For “FlaK K171A with a C-terminal His6-tag (natural protein)”, the stoichiometry N [3] was 4 and 6, the stoichiometry N [4] was 2 and the stoichiometry N [5] was 2.
With “FlaK, wild type, with a C-terminal His6-tag (natural protein)” the stoichiometry N [6] was 4 and 6, the stoichiometry N [7] was 2 and the stoichiometry N [8] was 2.
“FlaK Q140E with a C-terminal His6-tag (natural protein)” showed a stoichiometry N [9] of 2.
Substance “FlaK L371E with a C-terminal His6-tag (natural protein)” has a stoichiometry N [10] of 2.
“FlaK E237Q with a C-terminal His6-tag (natural protein)” was tested, and the stoichiometry N [11] was 2.
For “FlaK D236A with a C-terminal His6-tag (natural protein)”, the stoichiometry N [12] was 2.

From article doi:10.1101/2022.08.19.504623
